Experimental data taken from the supplement of paper PMC12042874.
± gives the uncertainty stated by the source.

Experiment: amyloid nucleation score (Sup35N fusion, yeast selection) (log enrichment); library NNK3; higher = more nucleation; inactive = no reads after selection
Method in brief: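 Sup35N was fused to peptides of 20 random codons and expressed in psi-negative yeast, which were induced with 100 μM copper sulfate for 24 hours and then grown on medium lacking adenine and uracil for 7 days at 30°C. Plasmid inserts from input and output were sequenced on Illumina. The nucleation score is the DiMSum log enrichment of output over input reads, centred on the mode score of non-aggregating sequences. Sequences with under 100 input reads were left out, and random libraries had three technical output replicates.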

Q: With IHRMMAYDFCRNLYFSEQWG as the substance, how does the amyloid nucleation score read?
A: inactive

Q: For IIADKVQSLISFDNVGMCQW, which amyloid nucleation score is on record?
A: inactive

Q: With IIAGGTYECQIQIVYF as the substance, how does the amyloid nucleation score read?
A: 1.22 ± 0.14

Q: For IIAPSGVGWYWR, which amyloid nucleation score is on record?
A: inactive

Q: Which amyloid nucleation score does the source give for IICLK here?
A: inactive

Q: With IICYSWRRFLC as the substance, how does the amyloid nucleation score read?
A: inactive

Q: For IIEDLLLHWLGVWVFSKKFA, which amyloid nucleation score is on record?
A: inactive

Q: Which amyloid nucleation score does the source give for IIFFNSDMNLGTDV here?
A: inactive

Q: With IIFIF as the substance, how does the amyloid nucleation score read?
A: 1.3 ± 0.14

Q: Which amyloid nucleation score does the source give for IIGSCGGFVSLACSGTLDGV here?
A: 0.538 ± 0.2

Q: With IIGSFC as the substance, how does the amyloid nucleation score read?
A: inactive

Q: For IINATVCHCM, which amyloid nucleation score is on record?
A: 3.33 ± 0.077

Q: With IINIRVIVSSLFPFLSSEFS as the substance, how does the amyloid nucleation score read?
A: inactive

Q: Which amyloid nucleation score does the source give for IIRISEFDSCGQTAW here?
A: inactive

Q: Which amyloid nucleation score does the source give for IISMFYSSKA here?
A: inactive

Q: With IIVTKGAMR as the substance, how does the amyloid nucleation score read?
A: -0.87 ± 1.7

Q: For IIWREVINVAVYRVVAVTHK, which amyloid nucleation score is on record?
A: inactive

Q: With IIYILPLCPRV as the substance, how does the amyloid nucleation score read?
A: inactive

Q: Which amyloid nucleation score does the source give for IIYRKVVKRCAWITDKEIPG here?
A: inactive

Q: For IKAYSRRSLSSSG, which amyloid nucleation score is on record?
A: inactive

Q: Which amyloid nucleation score does the source give for IKFSEWMNVGIVWWHYLISG here?
A: inactive

Q: Which amyloid nucleation score does the source give for IKMNNDGSMILWSLSSPTDL here?
A: inactive

Q: For IKNHIIVRIDFGLYGEEKDS, which amyloid nucleation score is on record?
A: 0.399 ± 0.19

Q: Which amyloid nucleation score does the source give for IKNMHRLDFR here?
A: -0.501 ± 1.9

Q: For IKNYCIIYSETPGRNKCGLR, which amyloid nucleation score is on record?
A: 1.01 ± 0.22

Q: For IKSTTSKVPANMDSWLGTKM, which amyloid nucleation score is on record?
A: inactive

Q: With IKVLVWFRSRCGNGANNLVC as the substance, how does the amyloid nucleation score read?
A: inactive

Q: Which amyloid nucleation score does the source give for IKVSECMSAYIVVFWYRMVV here?
A: inactive

Q: With IKVTIYPRLTRSNATFMPSM as the substance, how does the amyloid nucleation score read?
A: inactive

Q: With IKVWRGKVG as the substance, how does the amyloid nucleation score read?
A: inactive

Q: Which amyloid nucleation score does the source give for IKYLNLVRSVPLFS here?
A: inactive

Q: Which amyloid nucleation score does the source give for ILAFLERYTLMWFRELYNAS here?
A: inactive

Q: Which amyloid nucleation score does the source give for ILFIDSSFLIVR here?
A: inactive

Q: For ILFSQETRYELSL, which amyloid nucleation score is on record?
A: inactive

Q: With ILFTPMPVVD as the substance, how does the amyloid nucleation score read?
A: inactive

Q: Which amyloid nucleation score does the source give for ILGEWLFCSIIFWGVWDYAG here?
A: inactive

Q: Which amyloid nucleation score does the source give for ILGGGSIFKSRQNMIWYTLS here?
A: 0.207 ± 0.61

Q: With ILISFNQLKP as the substance, how does the amyloid nucleation score read?
A: 1.18 ± 0.13

Q: With ILKGL as the substance, how does the amyloid nucleation score read?
A: inactive

Q: With ILLIVL as the substance, how does the amyloid nucleation score read?
A: 1.68 ± 0.061

Q: For ILPFRWIVY, which amyloid nucleation score is on record?
A: inactive

Q: With ILQTRKRVNVLNIVIWQIAF as the substance, how does the amyloid nucleation score read?
A: 1.09 ± 0.18

Q: With ILSFEVWFGLWSTCGLYPHK as the substance, how does the amyloid nucleation score read?
A: inactive

Q: With ILSYARTFVLIDNKVGMLR as the substance, how does the amyloid nucleation score read?
A: inactive

Q: With ILVFVFSLRRIFAYMAVMSG as the substance, how does the amyloid nucleation score read?
A: inactive

Q: For ILWDKRRSYYCIMGAIYIVR, which amyloid nucleation score is on record?
A: inactive

Q: With ILWQYQTCC as the substance, how does the amyloid nucleation score read?
A: -0.457 ± 0.73

Q: For ILYDDSCLFVTASWTSYVFV, which amyloid nucleation score is on record?
A: 1.4 ± 0.073

Q: With ILYFDVTISV as the substance, how does the amyloid nucleation score read?
A: inactive

Q: With IMCRLMSKVYTMPQYEILSF as the substance, how does the amyloid nucleation score read?
A: inactive

Q: For IMDDTSQSNRCYYEKVLCRG, which amyloid nucleation score is on record?
A: 1.34 ± 0.092

Q: Which amyloid nucleation score does the source give for IMHGSNMVRRGLVQY here?
A: inactive

Q: With IMLGRANSIYMH as the substance, how does the amyloid nucleation score read?
A: inactive

Q: With IMMMNLKM as the substance, how does the amyloid nucleation score read?
A: 1.92 ± 0.079

Q: For IMPPEFVFIFHRMNGHYLGF, which amyloid nucleation score is on record?
A: inactive

Q: Which amyloid nucleation score does the source give for IMRSY here?
A: inactive

Q: Which amyloid nucleation score does the source give for INAGF here?
A: inactive

Q: Which amyloid nucleation score does the source give for INCLDFYTTVYNTRSWIFVH here?
A: inactive

Q: Which amyloid nucleation score does the source give for INFNLVHRLEVFWRVI here?
A: inactive

Q: With INFTRSQYRFLIWYASQKMS as the substance, how does the amyloid nucleation score read?
A: inactive

Q: With INFYVSFYIIVTCYVVAHCV as the substance, how does the amyloid nucleation score read?
A: 1.32 ± 0.15

Q: For INGDNAPGYYYIMMIPRDIH, which amyloid nucleation score is on record?
A: 0.858 ± 0.12

Q: For INHLSWCPVYFYFWNPVYLR, which amyloid nucleation score is on record?
A: 1.49 ± 0.11

Q: Which amyloid nucleation score does the source give for INLFTAYAVSL here?
A: inactive

Q: Which amyloid nucleation score does the source give for INNLYDVQRGIADFWKSWLV here?
A: inactive

Q: For INSSILGSCLWWFLFCF, which amyloid nucleation score is on record?
A: 1.2 ± 0.12

Q: With INTVLLGYS as the substance, how does the amyloid nucleation score read?
A: inactive

Q: Which amyloid nucleation score does the source give for INVDWFSPFGVLKNSSK here?
A: inactive
